According to patent US20060275290A1:

Target: p75 neurotrophin receptor (p75^NTR) on rat embryonic (E15) spinal cord motor neurons (rat) (UniProt P07174)
Assay: cell-based or functional assay

p75 neurotrophin receptor (p75^NTR) on rat embryonic (E15) spinal cord motor neurons (rat), sequence (P07174 30-425): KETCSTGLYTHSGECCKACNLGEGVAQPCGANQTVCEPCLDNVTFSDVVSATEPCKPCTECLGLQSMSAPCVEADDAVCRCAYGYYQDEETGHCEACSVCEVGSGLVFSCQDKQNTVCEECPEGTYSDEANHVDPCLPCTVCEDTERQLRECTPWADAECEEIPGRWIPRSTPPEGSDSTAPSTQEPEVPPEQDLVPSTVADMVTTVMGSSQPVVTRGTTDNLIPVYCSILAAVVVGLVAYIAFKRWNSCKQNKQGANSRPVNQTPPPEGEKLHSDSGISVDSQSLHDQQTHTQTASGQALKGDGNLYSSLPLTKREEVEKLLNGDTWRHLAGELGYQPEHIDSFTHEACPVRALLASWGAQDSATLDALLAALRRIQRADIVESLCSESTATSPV

share of motor neurons vulnerable to NGF in culture: 40%
Substance: mouse NGF (2.5S), purified, from Harlan (from UniProt P01139 122-241) (ligand)
